Experimental data reported in PMC4429956.

Legend:
Assay in all cases: SPR
PI(4,5)P2 = settings: parent: est. 240; read off a plot
PI3P = settings: parent: est. 370; read off a plot
PI5P = settings: parent: est. 460; read off a plot
[1] = target: histone H3 peptide trimethylated at lysine 4; settings: parent: est. 490; read off a plot

GST-TAF3 PHD finger, wild type D890; W891
response (PI(4,5)P2): 120 RU
response (PI3P): 270 RU
response (PI5P): 400 RU

GST-TAF3 PHD finger, wild type K922; K923; K925; K926; R927; K928
response [1]: 570 RU
